The target in the test is T1, Mouse Gal3 protein (recombinant) (mouse, UniProt P16110 1-264).
T1 construct: Galectin-3, mouse, bought protein; R&D is named as the source only for the BLI assay; also called galectin-3; source: bought: R&D
Put plainly: BLI; His-tagged CACNG1 (30-109) captured on Ni-NTA biosensors, Gal3 in a concentration gradient, Octet (ForteBio), 30 °C. The note with it: both partners purified. (In BLI a coated tip is dipped into the sample, and binding shifts an interference pattern.)

T1 sequence (P16110 whole entry): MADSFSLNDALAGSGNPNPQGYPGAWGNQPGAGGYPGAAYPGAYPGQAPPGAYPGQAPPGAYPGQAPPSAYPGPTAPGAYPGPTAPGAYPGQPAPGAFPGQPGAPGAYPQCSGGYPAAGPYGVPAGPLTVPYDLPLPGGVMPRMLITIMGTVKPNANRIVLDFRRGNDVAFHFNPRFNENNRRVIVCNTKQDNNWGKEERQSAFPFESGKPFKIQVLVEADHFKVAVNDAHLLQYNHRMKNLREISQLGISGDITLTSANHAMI

B1: Extracellular domains of mouse CACNG1 (30-109 AA) with His tags (domain or fragment, UniProt O70578 30-109, looked up)
chain: DHWAVLSPHLEHHNETCEAAHFGLWRICTARVAVHNKDKSCEHVTPSGEKNCSYFRHFNPGESSEIFEFTTQKEYSISAA
modifications: includes the two glycosylation sites
notes: CACNG1, mouse, extracellular domains, residues 30-109, including the two glycosylation sites
Broadly, the Kd is a measure of binding affinity in units of concentration. In the case of B1, the Kd is 180 nM.

The record behind these values is PMC11063191, “Galectin-3 impairs calcium transients and β-cell function” (Nature Communications, 2024).
